The target in assay [1] is recombinant TRP120 tandem repeat domain, His-tagged (rTRP120-TR) (E. chaffeensis) (UniProt Q2GI62). Briefly: SPR; Biacore T100, NTA sensor chip; His-tagged TRP120-FL, TRP120-TR or TRX (0.1 uM) immobilised; Fc-tagged Notch-1 LBR as analyte, 2-fold dilutions 800 nM to 25 nM; 25 C; 100 mM sodium phosphate pH 7.4, 400 mM NaCl, 40 uM EDTA; 1:1 Langmuir model.
The target of assay [2] is recombinant full-length TRP120, His-tagged (rTRP120-FL) (E. chaffeensis) (UniProt Q2GI62). The description is as above.

Drawing on article PMC9040721, this text covers Kd for 1 substance.

In the case of “human rNotch-1 Fc Chimera Protein, CF (R&D Systems); Fc-tagged Notch-1 ligand-binding region (LBR) (from UniProt P46531 19-2555) (Fc fusion)”, the equilibrium dissociation constant (Kd) in assay [1] stood at 0.12 µM; in assay [2], 0.1 µM.

What is called Kd is a measure of binding affinity in units of concentration.
